The results in this text go back to patent US20120316071A1 (published 2012).

For test [1], the target named is T1, Recombinant Human DLL4 (delta-like protein 4) (human, UniProt Q9NR61 27-524).
T1 construct: Bought recombinant human DLL4 (R&D Systems Cat#1506-D4/CF); also called rHuman DLL4; Delta-like 4
Description: ELISA, DLL4 coated on plate, Fab at 75 nM. A general note: ELISA stands for enzyme-linked immunosorbent assay.

In test [2] the target is T1, Recombinant Human DLL4 (delta-like …). In words: ELISA, DLL4 coated on plate, Fab at 0 nM (no-Fab background).
Test [3] has the same target. Description: ELISA, DLL4 coated on plate, Fab at 50 nM.
For test [4] the target is unchanged. In words: ELISA, DLL4 coated on plate, Fab at 100 nM.
Test [5] has as its target T2, Recombinant Human DLL4 (delta-like protein 4) (human, UniProt Q9NR61 27-524).
T2 construct: also called rHuman DLL4
In words: ECL (Meso Scale Discovery) binding assay on immobilised DLL4, Fab 10 nM.

B1: Fab VH1-46_IGHD6-6*01_IGHJ1*01 S102A/S103P/S104F/H111F/G56A & L6_IGKJ1*01 S28N/S30D/S31H (Fab, V domains shown)
VH: QVQLVQSGAEVKKPGASVKVSCKASGYTFTSYYMHWVRQAPGQGLEWMGIINPSGASTSYAQKFQGRVTMTRDTSTSTVYMELSSLRSEDTAVYYCAREEYAPFSAEYFQFWGQGTLVTVSS
VL: EIVLTQSPATLSLSPGERATLSCRASQNVDHYLAWYQQKPGQAPRLLIYDASNRATGIPARFSGSGSGTDFTLTISSLEPEDFAVYYCQQRSNWPPWTFGQGTKVEIKR
notes: Tested as a Fab; also called H:APFF G56A & L:NDH
Regarding B1, the ELISA signal in test [1] was 0.543; in test [2], 0.002; in test [3], 0.366; in test [4], 0.453.

B2: Fab VH1-46_IGHD6-6*01_IGHJ1*01 S102A/S103P/S104F/H111F (APFF) & L6_IGKJ1*01 S76L (Fab, V domains shown)
VH: QVQLVQSGAEVKKPGASVKVSCKASGYTFTSYYMHWVRQAPGQGLEWMGIINPSGGSTSYAQKFQGRVTMTRDTSTSTVYMELSSLRSEDTAVYYCAREEYAPFSAEYFQFWGQGTLVTVSS
VL: EIVLTQSPATLSLSPGERATLSCRASQSVSSYLAWYQQKPGQAPRLLIYDASNRATGIPARFSGSGSGTDFTLTILSLEPEDFAVYYCQQRSNWPPWTFGQGTKVEIKR
notes: Fab made in E. coli: VH in plasmid A (CH1, His6 and Flag tags), VL in plasmid C (kappa CL); also called H:APFF & L6_IGKJ1*01 S76L
Consider B2, for which the “Signal [10 nM Fab]” value in test [5] came to 13700.

B3: Fab VH1-46_IGHD6-6*01_IGHJ1*01 S102A/S103P/S104F/H111F (APFF) & L6_IGKJ1*01 S76G (Fab, V domains shown)
VH: QVQLVQSGAEVKKPGASVKVSCKASGYTFTSYYMHWVRQAPGQGLEWMGIINPSGGSTSYAQKFQGRVTMTRDTSTSTVYMELSSLRSEDTAVYYCAREEYAPFSAEYFQFWGQGTLVTVSS
VL: EIVLTQSPATLSLSPGERATLSCRASQSVSSYLAWYQQKPGQAPRLLIYDASNRATGIPARFSGSGSGTDFTLTIGSLEPEDFAVYYCQQRSNWPPWTFGQGTKVEIKR
notes: Fab made in E. coli: VH in plasmid A (CH1, His6 and Flag tags), VL in plasmid C (kappa CL); also called H:APFF & L6_IGKJ1*01 S76G
On to B3, for which the “Signal [10 nM Fab]” value in test [5] was determined as 13400.

B4: Fab VH1-46_IGHD6-6*01_IGHJ1*01 S102A/S103P/S104F/H111F (APFF) & L6_IGKJ1*01 (Fab, V domains shown)
VH: QVQLVQSGAEVKKPGASVKVSCKASGYTFTSYYMHWVRQAPGQGLEWMGIINPSGGSTSYAQKFQGRVTMTRDTSTSTVYMELSSLRSEDTAVYYCAREEYAPFSAEYFQFWGQGTLVTVSS
VL: not shown
notes: Fab made in E. coli: VH in plasmid A (CH1, His6 and Flag tags), VL in plasmid C (kappa CL); also called H:APFF & L:wt; APFF mutant
For B4, the “Signal [10 nM Fab]” value in test [5] turned out to be 13500.

B5: Fab VH1-46_IGHD6-6*01_IGHJ1*01 S102A/S103P/S104F/H111F (APFF) & L6_IGKJ1*01 S76Y (Fab, V domains shown)
VH: QVQLVQSGAEVKKPGASVKVSCKASGYTFTSYYMHWVRQAPGQGLEWMGIINPSGGSTSYAQKFQGRVTMTRDTSTSTVYMELSSLRSEDTAVYYCAREEYAPFSAEYFQFWGQGTLVTVSS
VL: EIVLTQSPATLSLSPGERATLSCRASQSVSSYLAWYQQKPGQAPRLLIYDASNRATGIPARFSGSGSGTDFTLTIYSLEPEDFAVYYCQQRSNWPPWTFGQGTKVEIKR
notes: Fab made in E. coli: VH in plasmid A (CH1, His6 and Flag tags), VL in plasmid C (kappa CL); also called H:APFF & L6_IGKJ1*01 S76Y
For the molecule B5, the “Signal [10 nM Fab]” value in test [5] is 14800.

B6: Fab VH1-46_IGHD6-6*01_IGHJ1*01 S102A/S103P/S104F/H111F/S54A & L6_IGKJ1*01 S28N/S30D/S31H (Fab, V domains shown)
VH: QVQLVQSGAEVKKPGASVKVSCKASGYTFTSYYMHWVRQAPGQGLEWMGIINPAGGSTSYAQKFQGRVTMTRDTSTSTVYMELSSLRSEDTAVYYCAREEYAPFSAEYFQFWGQGTLVTVSS
VL: EIVLTQSPATLSLSPGERATLSCRASQNVDHYLAWYQQKPGQAPRLLIYDASNRATGIPARFSGSGSGTDFTLTISSLEPEDFAVYYCQQRSNWPPWTFGQGTKVEIKR
notes: Tested as a Fab; also called H:APFF S54A & L:NDH
As to B6, the ELISA signal in test [1] stood at 0.212; in test [2], 0; in test [3], 0.154; in test [4] it was 0.213.

B7: Fab VH1-46_IGHD6-6*01_IGHJ1*01 S102A/S103P/S104F/H111F (APFF) & L6_IGKJ1*01 S76T (Fab, V domains shown)
VH: QVQLVQSGAEVKKPGASVKVSCKASGYTFTSYYMHWVRQAPGQGLEWMGIINPSGGSTSYAQKFQGRVTMTRDTSTSTVYMELSSLRSEDTAVYYCAREEYAPFSAEYFQFWGQGTLVTVSS
VL: EIVLTQSPATLSLSPGERATLSCRASQSVSSYLAWYQQKPGQAPRLLIYDASNRATGIPARFSGSGSGTDFTLTITSLEPEDFAVYYCQQRSNWPPWTFGQGTKVEIKR
notes: Fab made in E. coli: VH in plasmid A (CH1, His6 and Flag tags), VL in plasmid C (kappa CL); also called H:APFF & L6_IGKJ1*01 S76T
Turning to B7, in test [5], the “Signal [10 nM Fab]” value is 15700.
